Data from paper PMC7783346.

Test system: His6-KfrA G38A (plasmid RA3 (IncU; Aeromonas hydrophila in Fig S1/S3))
Assay: EMSA
Settings: EMSA: 50 mM Tris-HCl pH 8.0, 10 mM MgCl2, 50 mM NaCl, 37 C, 30 min, 10 nM EcoRI-NdeI-digested plasmid DNA (vector fragment as internal competitor), 20 ul …

WT OK (kfrAp), EcoRI-NdeI fragment of pESB2.68
K half: 260 nM
